Target: the molecule itself
Test: cryo-EM imaging

B1: MBP-MxB (full-length WT MxB tagged with maltose-binding protein) (natural protein, UniProt P20592 1-715, looked up)
chain: MSKAHKPWPYRRRSQFSSRKYLKKEMNSFQQQPPPFGTVPPQMMFPPNWQGAEKDAAFLAKDFNFLTLNNQPPPGNRSQPRAMGPENNLYSQYEQKVRPCIDLIDSLRALGVEQDLALPAIAVIGDQSSGKSSVLEALSGVALPRGSGIVTRCPLVLKLKKQPCEAWAGRISYRNTELELQDPGQVEKEIHKAQNVMAGNGRGISHELISLEITSPEVPDLTIIDLPGITRVAVDNQPRDIGLQIKALIKKYIQRQQTINLVVVPCNVDIATTEALSMAHEVDPEGDRTIGILTKPDLMDRGTEKSVMNVVRNLTYPLKKGYMIVKCRGQQEITNRLSLAEATKKEITFFQTHPYFRVLLEEGSATVPRLAERLTTELIMHIQKSLPLLEGQIRESHQKATEELRRCGADIPSQEADKMFFLIEKIKMFNQDIEKLVEGEEVVRENETRLYNKIREDFKNWVGILATNTQKVKNIIHEEVEKYEKQYRGKELLGFVNYKTFEIIVHQYIQQLVEPALSMLQKAMEIIQQAFINVAKKHFGEFFNLNQTVQSTIEDIKVKHTAKAENMIQLQFRMEQMVFCQDQIYSVVLKKVREEIFNPLGTPSQNMKLNSHFPSNESSVSSFTEIGIHLNAYFLETSKRLANQIPFIIQYFMLRENGDSLQKAMMQILQEKNRYSWLLQEQSETATKRRILKERIYRLTQARHALCQFSSKEIH
binding result: binds

— PMC4252739 (Cell host & microbe, 2014)
